The values below come from patent publication US6953577B2, “Human methionine aminopeptidase type 3” (Pharmacia Corporation, priority 1999, dated 2005).

Substrate in data set [1]: CSCC[C@H](N)C(=O)N[C@@H](C)C(=O)N[C@@H](CO)C(=O)O
Nature of the data set: Methionine aminopeptidase activity assay (methionine release from tripeptide, coupled L-amino acid oxidase/Amplex Red). Format: biochemical, human. As to conditions: other: hydrolysis of methionine from MAS peptide substrate; pH 7.5.

Substrate in data set [2]: CSCC[C@H](N)C(=O)N[C@@H](C)C(=O)N[C@@H](CO)C(=O)O
Nature of the data set: purified protein, by the assay type. As to conditions: other: hydrolysis of methionine from MAS peptide substrate; pH 7.5.

B1: recombinant human MetAP-3 (Homo sapiens) (protein)
chain: SSPLNHIYLHKQSSSQQRRNFFFRRQRDISHSIVLPAAVSSAHPVPKHIKKPDYVTTGIVPDWGDSIEVKNEDQIQGLHQACQLARHVLLLAGKSLKVDMTTEEIDALVHREIISHNAYPSPLGYGGFPKSVCTSVNNVLCHGIPDSRPLQDGDIINIDVTVYYNGYHGDTSETFLVGNVDECGKKLVEVARRCRDEAIAACRAGAPFSVIGNTISHITHQNGFQVCPHFVGHGIGSYFHGHPEIWHHANDSDLPMEEGMAFTIEPIITEGSPEFKVLEDAWTVVSLDNQRSAQFEHTVLITSRGAQILTKLPHEA
notes: The coding region of hMetAP-3 was also cloned into the EcoRI/HindIII sites of the pET43a vector and expressed as a fusion protein; NusA (N, cleaved yes); 6xHis (N, cleaved yes); made in house; host or cells: E. coli Tuner (DE3)plysS, pET43a
By Km is commonly meant the concentration of substrate that gives half-maximal velocity. Usually kcat stands for the maximal rate divided by the concentration of active sites. Consider B1, for which, in data set [1], the Km was determined as 600 µM and the kcat turned out to be 0.06 s⁻¹.

B2: recombinant human MetAP-2 (Homo sapiens) (protein)
chain: MAGVEEVAASGSHLNGDLDPDDREEGAASTAEEAAKKKRRKKKKSKGPSAAGEQEPDKESGASVDEVARQLERSALEDKERDEDDEDGDGDGDGATGKKKKKKKKKRGPKVQTDPPSVPICDLYPNGVFPKGQECEYPPTQDGRTAAWRTTSEEKKALDQASEEIWNDFREAAEAHRQVRKYVMSWIKPGMTMIEICEKLEDCSRKLIKENGLNAGLAFPTGCSLNNCAAHYTPNAGDTTVLQYDDICKIDFGTHISGRIIDCAFTVTFNPKYDTLLKAVKDATNTGIKCAGIDVRLCDVGEAIQEVMESYEVEIDGKTYQVKPIRNLNGHSIGQYRIHAGKTVPIVKGGEATRMEEGEVYAIETFGSTGKGVVHDDMECSHYMKNFDVGHVPIRLPRTKHLLNVINENFGTLAFCRRWLDRLGESKYLMALKNLCDLGIVDPYPPLCDIKGSYTAQFEHTILLRPTCKEVVSRGDDY
Regarding B2, in data set [2], the Km was found to be 300 µM and the catalytic constant (kcat) was found to be 2.3 s⁻¹.
